In publication PMC7851962:

Biological target: GFP-EB1-A7 (UniProt Q15691)
Test: co-IP

Sequence of UniProt Q15691 (Q15691 whole entry): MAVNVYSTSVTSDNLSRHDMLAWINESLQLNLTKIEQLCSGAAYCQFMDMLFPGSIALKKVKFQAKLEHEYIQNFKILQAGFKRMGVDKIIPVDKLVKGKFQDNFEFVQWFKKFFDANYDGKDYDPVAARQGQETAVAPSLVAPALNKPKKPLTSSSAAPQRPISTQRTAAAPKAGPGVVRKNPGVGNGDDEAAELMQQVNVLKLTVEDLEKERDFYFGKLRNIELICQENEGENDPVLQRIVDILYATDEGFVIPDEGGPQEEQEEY

B1: Arl4D^WT expressed in COS-7 cells (natural protein)
chain: MGNHLTEMAPTASSFLPHFQALHVVVIGLDSAGKTSLLYRLKFKEFVQSVPTKGFNTEKIRVPLGGSRGITFQVWDVGGQEKLRPLWRSYTRRTDGLVFVVDAAEAERLEEAKVELHRISRASDNQGVPVLVLANKQDQPGALSAAEVEKRLAVRELAAATLTHVQGCSAVDGLGLQQGLERLYEMILKRKKAARGGKKRR
Binder B1 has a percent of the amount co-immunoprecipitated with WT EB1 of 50%.
